Source: the supplement of paper PMC12764529
± gives the half width of the 95% confidence interval.

What was measured:
[1] = folding stability dG unfold from chymotrypsin proteolysis; higher = more stable
Outline: (§1)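 Unfolding free energy was derived, per protease or combined, by relating Bayesian-fitted K50 values from sequencing counts to a sequence-predicted unfolded-state K50 and a shared folded-state K50. The underlying digests exposed cysteine-free mini-proteins under 80 residues, in a PA-tagged cDNA display construct, to trypsin and chymotrypsin at 11 threefold-diluted concentrations and to a no-protease condition. A filter kept only designs with AlphaFold2 dimer inter-PAE above 15.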

[2] = folding stability dG unfold (combined trypsin and chymotrypsin); higher = more stable
Outline: as §1

[3] = folding stability dG unfold from trypsin proteolysis; higher = more stable
Outline: as §1

| Sequence | folding stability dG unfold [1] [kcal/mol] | folding stability dG unfold [2] [kcal/mol] | folding stability dG unfold [3] [kcal/mol] |
| --- | --- | --- | --- |
| SAGGSAGGSAGMVTRRMTPEEAEKFIADLPSDWSVEEISPLPENDIVEIKIKVEPPFKLQSAGGSAGGSAGG [r17_98_JUSTAS] | 1.76 ± 0.035 | 1.28 ± 0.097 | -0.199 ± 0.09 |
| SAGGSAGGSAGMVVSVDRATGTFTATDPALGTTTTVPGSEEEVRAYWAERFPDRPVTITASAGGSAGGSAGG [r11_614_JUSTAS] | -0.221 ± 0.38 | -0.0207 ± 0.15 | -0.00347 ± 0.076 |
| SAGGSAGGSAGMYVYKITYPTPSGGASEKLYPSSVPLEEVLKEAEERGAVEIEILPESELSAGGSAGGSAGG [r11_490_JUSTAS] | 0.151 ± 0.19 | 0.115 ± 0.23 | 0.103 ± 0.1 |
| SAGGSAGGSAGNDVINKKYTYTITETTEEKTPTDDPVSTTITTPIEITVKAPKDEVVIPDSAGGSAGGSAGG [r11_174_JUSTAS] | 0.644 ± 0.25 | 0.31 ± 0.22 | -0.6 ± 0.15 |
| SAGGSAGGSAGNSVTILPIPETDKYLVVVSDNSGKFTVFDVDSSDLEDVVKALPSNYTVTSAGGSAGGSAGG [r11_569_TrMRF] | 1.13 ± 0.051 | 1.04 ± 0.048 | 0.881 ± 0.025 |
| SAGGSAGGSAGPDKPIYVMIKFEHPGRKYTHSFEFDSPEDIEEVLDRLPPGYEIKEVEIFSAGGSAGGSAGG [r17_410_TrROS] | 0.946 ± 0.25 | 0.482 ± 0.2 | 0.0221 ± 0.1 |
| SAGGSAGGSAGPEIELREDSLVIRVKAKEGEVIGVPEGLEVEGVVYDPSTGELTVVVRAPSAGGSAGGSAGG [r11_942_TrMRF] | 1.73 ± 0.096 | 1.83 ± 0.21 | 2.31 ± 0.23 |
| SAGGSAGGSAGPEILIVVESEEEAKKLAEELARALREAGLPEDAKIKIKIIVLPKEELEKSAGGSAGGSAGG [r17_180_TrROS_Hall] | 2.33 ± 0.048 | 2.12 ± 0.066 | 1.76 ± 0.062 |
| SAGGSAGGSAGPGVLILRRRFVRPRLIPNTGKLYYEEVELTTNLPIGPIPPNWLNNPNGVSAGGSAGGSAGG [r17_493_TrMRF] | 0.0547 ± 0.11 | 0.0971 ± 0.14 | -0.0517 ± 0.15 |
| SAGGSAGGSAGPITVPPGAVLLSVEEEGERTRVTVRLPGSGVVETYTFEPGEPVVVELPGSAGGSAGGSAGG [r11_774_JUSTAS] | 2.941 ± 0.016 | 2.75 ± 0.043 | 2.27 ± 0.053 |
| SAGGSAGGSAGPITYRLEIRYEIERIEVRVYPGPEGPLVGEFRIEVRLEVRVEALPPEETSAGGSAGGSAGG [r11_24_TrMRF] | 4.88 ± 0.12 | 4.53 ± 0.16 | 3.69 ± 0.17 |
| SAGGSAGGSAGPIVLIKIKNKNGKEIEIEMSLEELKKKLPKELKNMKVEIVEVKEVKVEKSAGGSAGGSAGG [r11_353_TrROS_Hall] | 0.315 ± 0.14 | 0.56 ± 0.27 | 0.351 ± 0.088 |
| SAGGSAGGSAGPIVYPYGKYLVVYNPETGALVVVELDPDGKVKKVVVFGKDGPLVELDDASAGGSAGGSAGG [r17_385_TrMRF] | 3.369 ± 0.022 | 3.14 ± 0.047 | 2.76 ± 0.067 |
| SAGGSAGGSAGPKILSIEEYDPENGYITVIAELTGKPVRMKVKFIPGKKEIKIIEIEPLDSAGGSAGGSAGG [r11_1066_TrMRF] | 2.49 ± 0.036 | 2.36 ± 0.1 | 1.81 ± 0.07 |
| SAGGSAGGSAGPKPPPVYRLRIVNPDGEVYEFEVPADMSPEEIAKRLGLPPGARVELEKVSAGGSAGGSAGG [r11_340_TrROS_Hall] | 3.35 ± 0.081 | 3.28 ± 0.28 | 2.59 ± 0.17 |
| SAGGSAGGSAGPKVVLVPVKVVQKLLGVKIPENSRVLVLLEKDKVKAVLVFPVLPSPENPSAGGSAGGSAGG [r11_616_TrMRF] | 1.55 ± 0.07 | 1.54 ± 0.17 | 1.26 ± 0.12 |
| SAGGSAGGSAGPLSTVTETTTTVPLPNGEVLTVTTYTYPDLGVTTVTTTYPDGTVTTTTIPVSAGGSAGGSA [r18_88_JUSTAS] | 2.544 ± 0.011 | 2.47 ± 0.041 | 2.3 ± 0.077 |
| SAGGSAGGSAGPPNVKLTFTIMIMEMKMEPPPDGNPKMEMVMVPIEIEITAPPGDEITAISAGGSAGGSAGG [r11_174_TrROS] | 4 ± 0.44 | 2.93 ± 0.39 | 2.41 ± 0.2 |

| Sequence | folding stability dG unfold [1] [kcal/mol] | folding stability dG unfold [2] [kcal/mol] | folding stability dG unfold [3] [kcal/mol] |
| --- | --- | --- | --- |
| SAGGSAGGSAGPPPIEELLEQAKKNPNRPITIRNPGGYYIRITVKPDPNGKPEVEIEPVPSAGGSAGGSAGG [r11_300_TrROS] | 0.336 ± 0.25 | 0.263 ± 0.16 | 0.259 ± 0.09 |
| SAGGSAGGSAGPPVTLDEIRDHLPPENIEDVEVNPPEGWVVIEFKPPGGEKQEITIRADDSAGGSAGGSAGG [r17_374_TrROS] | 0.271 ± 0.021 | 0.277 ± 0.13 | 0.198 ± 0.062 |
| SAGGSAGGSAGPTLTLTLPPGKLSPEFLEALAAQGYTLGEVTVTEVPEDDTVVVTVTTAPSAGGSAGGSAGG [r11_345_JUSTAS] | 0.623 ± 0.12 | 1.1 ± 0.069 | 1.4 ± 0.069 |
| SAGGSAGGSAGPVVISIPETNTLVVLAPLPDDRVLADVFQFDPTTPEPTVFTVPAENISFSAGGSAGGSAGG [r11_285_TrMRF] | 0.335 ± 0.13 | 0.565 ± 0.099 | 0.76 ± 0.024 |
| SAGGSAGGSAGPYVVTIELPSGERIEVAVPAERLEEHVEELKPLVEPARITVRPVAPDALSAGGSAGGSAGG [r11_103_TrMRF] | 0.477 ± 0.018 | 0.376 ± 0.053 | 0.143 ± 0.02 |
| SAGGSAGGSAGRMLVIEIEMPGRKRTFMIPTPDGPPIKAEELADKLGFDNVTVKIHPIDDSAGGSAGGSAGG [r11_219_TrROS] | 0.261 ± 0.31 | 0.0664 ± 0.16 | -0.12 ± 0.55 |
| SAGGSAGGSAGRRRVFFTPDGTLIVVDELPDFVRVTRYRITPGFPRIEPVDTRVLPPGALSAGGSAGGSAGG [r11_844_TrMRF] | 2.94 ± 0.086 | 2.25 ± 0.16 | 1.11 ± 0.18 |
| SAGGSAGGSAGSITFTVPASEFTEEEILERLVEELGIPREKVDLVEIKETPDGKLKVTIKIPSAGGSAGGSA [r18_118_JUSTAS] | 2.488 ± 0.021 | 2.63 ± 0.06 | 2.86 ± 0.085 |
| SAGGSAGGSAGSITLPDGLTLTWNPATNTLTITLTAPPPPTTTTTTKPAATTTTTTTTTTSAGGSAGGSAGG [r11_331_TrROS_Hall] | 1.77 ± 0.092 | 1.87 ± 0.14 | 2.18 ± 0.086 |
| SAGGSAGGSAGSIVLTKTEILPGPENRPIIKTTIYKPPGPITITYPGGDPSKLVIETNSGSAGGSAGGSAGG [r17_64_JUSTAS] | -0.331 ± 0.37 | 0.0213 ± 0.28 | 0.247 ± 0.032 |
| SAGGSAGGSAGSIVTIPIAGLSPEEAEALIKEAIAAGEDKPIILVDEDGTPTVVPASELKSAGGSAGGSAGG [r11_541_JUSTAS] | -0.408 ± 0.035 | -0.242 ± 0.079 | -0.189 ± 0.052 |
| SAGGSAGGSAGSKTIEVVIPVKPNELTPEQAENLIKPFFPDAKIEVTPEGNYLVVKVEVSSAGGSAGGSAGG [r11_7_TrMRF] | 0.334 ± 0.067 | 0.366 ± 0.18 | 0.475 ± 0.11 |
| SAGGSAGGSAGSKTPSVLVIEVDANTSIEKILELYKKNYPVGEIRVFTRPDGRKIAVITGSAGGSAGGSAGG [r11_97_TrMRF] | 2.33 ± 0.069 | 2.31 ± 0.12 | 2.22 ± 0.028 |
| SAGGSAGGSAGSMFMIMIEYDPPGYIKVSINRYKMGPDGDFEPVEPETHEIPIPPGQPFFSAGGSAGGSAGG [r11_440_TrROS] | 2.36 ± 0.13 | 2.3 ± 0.17 | 1.91 ± 0.14 |
| SAGGSAGGSAGSMLTTTLPNGTPVTREFDIQDVEPKGDVIKVVITNPTGGEVPASTVIGPVNSAGGSAGGSA [r18_163_JUSTAS] | 0.757 ± 0.03 | 0.657 ± 0.081 | 0.412 ± 0.051 |
| SAGGSAGGSAGSMSLPVTELVVESVDPLEGVLVVKVKGTLPDGSEVELTLEFKPDEPLELSAGGSAGGSAGG [r11_211_JUSTAS] | 0.375 ± 0.066 | 0.71 ± 0.11 | 0.992 ± 0.043 |
| SAGGSAGGSAGSMTVTVTGGGVSVEVYPETGLVRVRSPSGSETLVDIATGEVVRREPAAASAGGSAGGSAGG [r11_149_JUSTAS] | 0.872 ± 0.029 | 0.781 ± 0.066 | 0.631 ± 0.047 |
| SAGGSAGGSAGSNKVVTFVPRDPATGAPLGERPIPINSSSGSEIESIKKELPPEVVEIVESAGGSAGGSAGG [r17_339_JUSTAS] | 1.15 ± 0.02 | 1.01 ± 0.066 | 0.605 ± 0.044 |
